In patent US9028829B2, “Uniform field magnetization and targeting of therapeutic formulations” (The Children's Hospital of Philadelphia, priority 2004, dated 2015):

Tested on: Pronase
Assay: Protection of MNP-encapsulated catalase from proteolysis
Assay type: in vitro ADME
Conditions: by 30 mins
Procedure: Protection and activity of MNP-encapsulated catalase. The capacity of MNP to protect the catalase cargo was measured using a proteolysis assay. Samples were incubated for 60 min at 37° C. with shaking in a 0.2 wt % buffered Pronase, a robust mixture of proteinases which completely digests proteins into individual amino acids. The amount of catalase retained by MNP post proteolysis was determined following MNP separation by centrifugation (20 min, 4° C. at […]) using the radioactivity assay described above. The enzymatic activity of MNP-bound catalase retained over time was measured in comparison with free catalase.

B1: free catalase: bovine liver catalase, not encapsulated (protein, UniProt P00432 2-527, looked up)
Catalase: ADNRDPASDQMKHWKEQRAAQKPDVLTTGGGNPVGDKLNSLTVGPRGPLLVQDVVFTDEMAHFDRERIPERVVHAKGAGAFGYFEVTHDITRYSKAKVFEHIGKRTPIAVRFSTVAGESGSADTVRDPRGFAVKFYTEDGNWDLVGNNTPIFFIRDALLFPSFIHSQKRNPQTHLKDPDMVWDFWSLRPESLHQVSFLFSDRGIPDGHRHMNGYGSHTFKLVNANGEAVYCKFHYKTDQGIKNLSVEDAARLAHEDPDYGLRDLFNAIATGNYPSWTLYIQVMTFSEAEIFPFNPFDLTKVWPHGDYPLIPVGKLVLNRNPVNYFAEVEQLAFDPSNMPPGIEPSPDKMLQGRLFAYPDTHRHRLGPNYLQIPVNCPYRARVANYQRDGPMCMMDNQGGAPNYYPNSFSAPEHQPSALEHRTHFSGDVQRFNSANDDNVTQVRTFYLKVLNEEQRKRLCENIAGHLKDAQLFIQKKAVKNFSDVHPEYGSRIQALLDKYNEEKPKNAVHTYVQHGSHLSAREKANL
catalase activity on exposure to proteolytic enzymes: total deactivation
